# How the values were obtained:
# [1] = Samsonova et al., 2003; cited from earlier work
# [2] = ω-transaminase activity assay, 7-aminoheptanol to 7-oxoheptanol; assay type: biochemical
# Method: A nucleotide sequence encoding an N-terminal His-tag was added to the Chromobacterium violaceum, Pseudomonas syringae and Rhodobacter sphaeroides genes encoding the ω-transaminases of SEQ ID NOs: 8, 10 and 11, respectively (see FIGS. 7F and 7G) such that N-terminal HIS tagged ω-transaminases could be produced. The modified genes were cloned into a pET21a expression vector under the T7 promoter. Each expression vector was transformed into a BL21[DE3] E. coli host. Each resulting recombinant E. coli strain were cultivated at 37° C. in a 250 mL shake flask culture containing 50 mL LB media and antibiotic selection pressure, with shaking at 230 rpm. Each culture was induced overnight at 16° C. using 1 mM IPTG.
# (§1) The pellet from each induced shake flask culture was harvested via centrifugation. Each pellet was resuspended and lysed via sonication. The cell debris was separated from the supernatant via centrifugation and the cell free extract was used immediately in enzyme activity assays.
# (§2) Enzyme activity assays in the reverse direction (i.e., 7-aminoheptanol to 7-oxoheptanol) were performed in a buffer composed of a final concentration of 50 mM HEPES buffer (pH=7.5), 10 mM 7-aminoheptanol, 10 mM pyruvate, and 100 μM pyridoxyl 5′ phosphate. Each enzyme activity assay reaction was initiated by adding cell free extract of the ω-transaminase gene product or the empty vector control to the assay buffer containing the 7-aminoheptanol and then incubated at 25° C. for 4 h, with shaking at 250 rpm. The formation of L-alanine was quantified via RP-HPLC.
# [3] = ω-transaminase activity assay, forward direction (pimelate semialdehyde to 7-aminoheptanoate); assay type: biochemical; conditions: concluded from reversibility of the ω-transaminase activity
# Method: (§3) A sequence encoding an N-terminal His-tag was added to the genes from Chromobacterium violaceum, Pseudomonas syringae, Rhodobacter sphaeroides, and Vibrio Fluvialis encoding the ω-transaminases of SEQ ID NOs: 8, 10, 11 and 13, respectively (see FIGS. 7F and 7G) such that N-terminal HIS tagged ω-transaminases could be produced. Each of the resulting modified genes was cloned into a pET21a expression vector under control of the T7 promoter and each expression vector was transformed into a BL21[DE3] E. coli host. The resulting recombinant E. coli strains were cultivated at 37° C. in a 250 mL shake flask culture containing 50 mL LB media and antibiotic selection pressure, with shaking at 230 rpm. Each culture was induced overnight at 16° C. using 1 mM IPTG.
# as §1
# Enzyme activity in the forward direction (i.e., pimelate semialdehyde to 7-aminoheptanoate) was confirmed for the transaminases of SEQ ID NO 10, SEQ ID NO 11 and SEQ ID NO 13. Enzyme activity assays were performed in a buffer composed of a final concentration of 50 mM HEPES buffer (pH=7.5), 10 mM pimelate semialdehyde, 10 mM L-alanine and 100 μM pyridoxyl 5′ phosphate. Each enzyme activity assay reaction was initiated by adding a cell free extract of the ω-transaminase gene product or the empty vector control to the assay buffer containing the pimelate semialdehyde and incubated at 25° C. for 4 h, with shaking at 250 rpm. The formation of pyruvate was quantified via RP-HPLC.
# [4] = ω-transaminase activity assay, reverse direction (7-aminoheptanoate to pimelate semialdehyde); assay type: biochemical; conditions: cell free extract, 10 mM 7-aminoheptanoate, 10 mM pyruvate, 25° C., 4 h; against empty vector control; FIG. 15
# Method: as §3, §1
# as §2, with “7-aminoheptanoate” for “7-aminoheptanol”, “pimelate semialdehyde)” for “7-oxoheptanol)”, “7-aminoheptanoate,” for “7-aminoheptanol,”, “pyruvate” for “pyruvate,”, “and” for “and then”, “L-alanine from pyruvate” for “L-alanine”
# [5] = Kaulmann et al., 2007; cited from earlier work
# [6] = Thioesterase enzyme activity assay, pimeloyl-CoA to pimelate (release of CoA, Ellman's reagent); assay type: biochemical; conditions: 667 μM pimeloyl-CoA, 0.8 μM enzyme, pH 7.4, 37° C., 20 min; relative to empty vector control; FIG. 8
# Method: A sequence encoding an N-terminal His tag was added to the tesB gene from Escherichia coli that encodes a thioesterase (SEQ ID NO 1, see FIG. 7A), such that an N-terminal HIS tagged thioesterase could be produced. The modified tesB gene was cloned into a pET15b expression vector under control of the T7 promoter. The expression vector was transformed into a BL21[DE3] E. coli host. The resulting recombinant E. coli strain was cultivated at 37° C. in a 500 mL shake flask culture containing 50 mL Luria Broth (LB) media and antibiotic selection pressure, with shaking at 230 rpm. The culture was induced overnight at 17° C. using 0.5 mM IPTG.
# The pellet from the induced shake flask culture was harvested via centrifugation. The pellet was resuspended and lysed in Y-Per™ solution (ThermoScientific, Rockford, Ill.). The cell debris was separated from the supernatant via centrifugation. […]
# The enzyme activity assay was performed in triplicate in a buffer composed of 50 mM phosphate buffer (pH=7.4), 0.1 mM Ellman's reagent, and 667 μM of pimeloyl-CoA (as substrate). […] The release of Coenzyme A was monitored by absorbance at 412 nm. The absorbance associated with the substrate only control, which contained boiled enzyme, was subtracted from the active enzyme assay absorbance and compared to the empty vector control.
molecule,measurement,setting,value
"SEQ ID NO 12: Escherichia coli diamine ω-transaminase, Genbank Accession No. AAA57874.1 (protein, listed as Escherichia coli) MNRLPSSASALACSAHALNLIEKRTLDHEEMKALNREVIEYFKEHVNPGFLEYRKSVTAGGDYGAVEWQAGSLNTLVDTQGQEFIDCLGGFGIFNVGHRNPVVVSAVQNQLAKQPLHSQELLDPLRAMLAKTLAALTPGKLKYSFFCNSGTESVEAALKLAKAYQSPRGKFTFIATSGAFHGKSLGALSATAKSTFRKPFMPLLPGFRHVPFGNIEAMRTALNECKKTGDDVAAVILEPIQGEGGVILPPPGYLTAVRKLCDEFGALMILDEVQTGMGRTGKMFACEHENVQPDILCLAKALGGGVMPIGATIATEEVFSVLFDNPFLHTTTFGGNPLACAAALATINVLLEQNLPAQAEQKGDMLLDGFRQLAREYPDLVQEARGKGMLMAIEFVDNEIGYNFASEMFRQRVLVAGTLNNAKTIRIEPPLTLTIEQCELVIKAARKALAAMRVSVEEA",diamine substrate range,[1],accepts a broad range of diamine carbon chain length substrates
"SEQ ID NO 8: Chromobacterium violaceum ω-transaminase, Genbank Accession No. AAQ59697.1 (protein, listed as Chromobacterium violaceum) MQKQRTTSQWRELDAAHHLHPFTDTASLNQAGARVMTRGEGVYLWDSEGNKIIDGMAGLWCVNVGYGRKDFAEAARRQMEELPFYNTFFKTTHPAVVELSSLLAEVTPAGFDRVFYTNSGSESVDTMIRMVRRYWDVQGKPEKKTLIGRWNGYHGSTIGGASLGGMKYMHEQGDLPIPGMAHIEQPWWYKHGKDMTPDEFGVVAARWLEEKILEIGADKVAAFVGEPIQGAGGVIVPPATYWPEIERICRKYDVLLVADEVICGFGRTGEWFGHQHFGFQPDLFTAAKGLSSGYLPIGAVFVGKRVAEGLIAGGDFNHGFTYSGHPVCAAVAHANVAALRDEGIVQRVKDDIGPYMQKRWRETFSRFEHVDDVRGVGMVQAFTLVKNKAKRELFPDFGEIGTLCRDIFFRNNLIMRACGDHIVSAPPLVMTRAEVDEMLAVAERCLEEFEQTLKARGLA","acceptance of 7-aminoheptanol as substrate (formation of L-alanine, RP-HPLC)","[2]; cell free extract, 10 mM 7-aminoheptanol, 10 mM pyruvate, 25° C., 4 h, against empty vector control, FIG. 19",accepted 7-aminoheptanol as substrate
same,"acceptance of 7-oxoheptanol as substrate, forming 7-aminoheptanol (concluded from reversibility)",[2]; concluded from reversibility of the ω-transaminase activity (Example 2),accept 7-oxoheptanol as substrate
same,"acceptance of pimelate semialdehyde as substrate, synthesizing 7-aminoheptanoate (conclusion from confirmed reversibility)",[3],accepted pimelate semialdehyde as substrate
same,"acceptance of 7-aminoheptanoate as substrate (formation of L-alanine from pyruvate, RP-HPLC)",[4],accepted 7-aminoheptanote as substrate
same,activity accepting 6-aminohexanoic acid as amino donor,[5],accepting 6-aminohexanoic acid as amino donor
"gene product of tesB: Escherichia coli thioesterase encoded by tesB, GenBank Accession No. AAA24665.1 (protein, listed as Escherichia coli) MSQALKNLLTLLNLEKIEEGLFRGQSEDLGLRQVFGGQVVGQALYAAKETVPEERLVHSFHSYFLRPGDSKKPIIYDVETLRDGNSFSARRVAAIQNGKPIFYMTASFQAPEAGFEHQKTMPSAPAPDGLPSETQIAQSLAHLLPPVLKDKFICDRPLEVRPVEFHNPLKGHVAEPHRQVWIRANGSVPDDLRVHQYLLGYASDLNFLPVALQPHGIGFLEPGIQIATIDHSMWFHRPFNLNEWLLYSVESTSASSARGFVRGEFYTQDGVLVASTVQEGVMRNHN","acceptance of pimeloyl-CoA as substrate (release of Coenzyme A, absorbance at 412 nm)",[6],accepted pimeloyl-CoA as substrate
